The target of this data set is pooled human IgG.

B1: PRT-52 (protein)
chain: MANQEIRYSEVTPYHVTSVWTKGVTPPANFTQGEDVFHAPYVANQGWYDINKTFNGGDDLLCGAATAGNMLHWWFDQNKEYIDRYLKEHPEKQKINFNGEQMFDVKEAIDTKNSQTDSKLFEYFKEKAFPYLSTKHLGVFPDLVIDMFINGYRLSLTNHGPTPVKEGSKDPRGGFFDAVFTRGDQSKLLTSRHDFKEKNYNEISDLIKKELKEGKALGLSHTYANVRINHVINLWGADFDSNGNLKAIYVTDSDSNASVGMKKYFVGVNSAGKVAISAKEIKEDNIGAQVLGLFTLSTGQDSWNQTN
As for B1, the Enzyme Activity Endpoint Assay: Fab′2 is 0 ng/µL, the Enzyme Activity Endpoint Assay: Fc turned out to be 12 ng/µL, the Enzyme Activity Endpoint Assay: IgG came out at 122 ng/µL and the Enzyme Activity Endpoint Assay: scIgG worked out at 0 ng/µL.

B2: PRT-56 (protein)
chain: MANQEIRYSEVTPYHVTSVWTKGVTPPANFTQGEDVFHAPYVANQGWYDINKTFNGKDDLLCGAATAGNMLHWWFDQNKEYIDRYLEEHPEKQKINFNGEQMFDVKEAIDTKNHQLDSKLFEYFKEKAFPYLSTKHLGVFPDLVLDMFINGYRLSLTNHGPTPVKEGSKDPRGGFFDAVFTRGDQSKLLTSRHDFKEKNLKEISDLIKKELTEGKALGLSHTYANVRINHVINLWGADFDSNGNLKAIYVTDSDSNASVGMKKYFVGVNSAGKVAISAKEIKEDNIGAQVLGLFTLSTGQDSWNQTN
On to B2, for which the Enzyme Activity Endpoint Assay (purified): Fab′2 was determined as 0 ng/µL, the Enzyme Activity Endpoint Assay (purified): Fc turned out to be 13 ng/µL, the Enzyme Activity Endpoint Assay (purified): IgG amounted to 125 ng/µL and the Enzyme Activity Endpoint Assay (purified): scIgG amounted to 3 ng/µL.

B3: PRT-53 (protein)
chain: MANQEIRYSEVTPYHVTSVWTKGVTPPANFTQGEDVFHAPYVANQGWYDITKTFNGKDDLLCGAATAGNMLHWWFDQNKDQIDRYLEEHPEKQKINFNGEQMFDVKEAIDTKNDQLDSKLFEYFKEKAFPYLSTKHLGVFPDLVIDMFINGYRLSLTNHGPTPVKEGSKDPRGGIFDAVFTRGDQSKLLTSRHDFKEKNLKEISDLIKKELTEGKALGLSHTYANVRINHVINLWGADFDSNGNLKAIYVTDSDSNASIGMKKYFVGVNSAGKVAISAKEIKEDNIGAQVLGLFTLSTGQDSWNQTN
Take B3: the Enzyme Activity Endpoint Assay: Fab′2 is 7 ng/µL, the Enzyme Activity Endpoint Assay: Fc is 84 ng/µL, the Enzyme Activity Endpoint Assay: IgG came out at 9 ng/µL and the Enzyme Activity Endpoint Assay: scIgG turned out to be 61 ng/µL.

B4: PRT-54 (protein)
chain: MANQEIRYSEVTPYHVTSVWTKGVTPPANFTQGEDVFHAPYVANQGWYDITKTFNGKDDLLCGAATAGNMLHWWFDQNKDQIDRYLEEHPEKQKINFNGEQMFDVKEAIDTKNHQLDSKLFEYFKEKAFPYLSTKHLGVFPDLVIDMFINGYRLSLTNHGPTPVKEGSKDPRGGFFDAVFTRGDQSKLLTSRHDFKEKNLKEISDLIKKELTEGKALGLSHTYANVRINHVINLWGADFDSNGNLKAIYVTDSDSNASIGMKKYFVGVNSAGKVAISAKEIKEDNIGAQVLGLFTLSTGQDSWNQTN
B4 showed an Enzyme Activity Endpoint Assay: Fab′2 of 0 ng/µL, an Enzyme Activity Endpoint Assay: Fc of 24 ng/µL, an Enzyme Activity Endpoint Assay: IgG of 110 ng/µL and an Enzyme Activity Endpoint Assay: scIgG of 10 ng/µL.

B5: PRT-55 (protein)
chain: MANQEIRYSEVTPYHVTSVWTKGVTPPANFTQGEDVFHAPYVANQGWYDITKTFNGKDDLLCGAATAGNMLHWWFDQNKDQIDRYLEEHPEKAKINFNGEQMFDVKEAIDTKNHQLDSKLFEYFKEKAFPYLSTKHLGVFPDLVIDMFINGYRLSLTNHGPTPVKEGSKDPRGGFFDAVFGRGDQSKLLTSRHDFKEKNLKEISDLIKKELTEGKALGLSHTYANVRINHVINLWGADFDSNGNLKAIYVTDSDSNASIGMKKYFVGVNSAGKVAISAKEIKEDNIGAQVLGLFTLSTGQDSWNQTN
For B5, the Enzyme Activity Endpoint Assay (purified): Fab′2 is 0 ng/µL, the Enzyme Activity Endpoint Assay (purified): Fc is 70 ng/µL, the Enzyme Activity Endpoint Assay (purified): IgG was 19 ng/µL and the Enzyme Activity Endpoint Assay (purified): scIgG was determined as 57 ng/µL.

The values above are taken from patent US20250027068.
